From patent US12044651B2, “Sensor device and methods” (SCENTIAN BIO LIMITED, priority 2016, dated 2024)
One block for each molecule: values may come before it.

Experiments:
Format in all cases: binding
Conditions in all cases: lowest three concentrations
[1] = target: T1, Or10a (Drosophila melanogaster, UniProt Q9VYZ1); test: EIS sensor, Or10a liposomes on gold electrode (Example 1)
T1 sequence (Q9VYZ1 1-406): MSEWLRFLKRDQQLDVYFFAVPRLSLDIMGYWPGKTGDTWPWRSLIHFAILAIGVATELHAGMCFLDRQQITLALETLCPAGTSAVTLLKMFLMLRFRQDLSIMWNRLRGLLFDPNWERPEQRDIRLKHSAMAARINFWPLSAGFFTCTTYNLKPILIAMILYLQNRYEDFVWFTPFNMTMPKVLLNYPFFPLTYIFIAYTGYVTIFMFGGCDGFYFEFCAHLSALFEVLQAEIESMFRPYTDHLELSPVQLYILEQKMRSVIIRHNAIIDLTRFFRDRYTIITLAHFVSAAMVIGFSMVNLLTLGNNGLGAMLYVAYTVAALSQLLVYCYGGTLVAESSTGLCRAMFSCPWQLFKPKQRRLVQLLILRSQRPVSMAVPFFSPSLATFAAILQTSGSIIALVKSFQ
Experimental: (§1) Liposomes were prepared using a phospholipid solution produced by evaporating solutions containing: phosphatidylethanolamine (PE), phosphatidylserine (PS), phosphatidylcholine (PC), and cholesterol (CH) at a molar ratio of 5:3:3:1 in a small glass tube under a stream of N2 gas, then desiccating under vacuum for 1 h. […] To promote the formation of liposomes, 10 freeze/thaw steps were performed by transferring the tube from liquid nitrogen to a 40° C. water bath. Liposomes were then sized by passing the lipid solution 11 times through a 100-nm polycarbonate membrane using an Avestin LiposoFAST extruder unit (Avestin, Germany). Glycerol was added at 10% of the final volume and aliquots at 10 mg/mL were snap frozen in liquid nitrogen and stored at -80° C. Prior to their use, liposomes were defrosted on ice and then destabilized by incubating with 0.2% CHAPS for 15 min at room temperature. Then 200 μg of purified odorant receptor^14 was added to 1 mg of liposomes and rotated at 10 rpm for 1 h at room temperature. […] The Bio-Beads were removed after each incubation period. The OR integrated liposomes were pelleted by centrifugation at 100,000 g for 1 h, and were resuspended in 500 μL of rehydration buffer. Integration of OrXs into liposomes was assessed by density gradient ultracentrifugation (DGU) using Accudenz (Accurate Chemical & Scientific Corporation, USA). […] The sample was then centrifuged at 100,000 g for 4 h at 4° C. Liposomes will float to the top of the gradient after Accudenz DGU due to their low density. 1.3 Electrode Cleaning Gold disk (2 mm) electrodes were cleaned with polishing with Alumina paste for 2 minutes, ultra-sonicated in pure ethanol and then Milli-Q water for 5 minutes each. […] Charge transfer resistance (Rct) of electrodes were calculated by fitting obtained data to a Randles' equivalent circuit [Rs+CPE/(Rct+W)] comprising of a solution resistance (Rs) in series with a constant phase element (CPE) and in parallel with charge transfer resistance (Rct) and Warburg diffusion element. […]

[2] = target: T2, Or22a (Drosophila melanogaster, UniProt P81909); test: EIS sensor, Or22a liposomes on gold electrode (Example 1)
T2 sequence (P81909 1-397): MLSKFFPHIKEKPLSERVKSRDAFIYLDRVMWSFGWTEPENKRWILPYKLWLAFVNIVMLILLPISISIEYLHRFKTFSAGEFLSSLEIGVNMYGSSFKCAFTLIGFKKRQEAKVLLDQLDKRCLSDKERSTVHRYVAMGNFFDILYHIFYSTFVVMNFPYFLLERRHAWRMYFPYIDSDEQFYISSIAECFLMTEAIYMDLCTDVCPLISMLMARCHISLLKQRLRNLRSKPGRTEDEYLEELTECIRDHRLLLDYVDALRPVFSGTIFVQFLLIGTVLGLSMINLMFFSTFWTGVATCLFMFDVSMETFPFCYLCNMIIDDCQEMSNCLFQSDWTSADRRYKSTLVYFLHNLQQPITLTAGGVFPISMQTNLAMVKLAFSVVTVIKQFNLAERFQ
Experimental: as §1

[3] = target: T3, OR35a (Drosophila melanogaster, UniProt Q9V3Q2); test: EIS sensor, Or35a liposomes on gold electrode (Example 1)
T3 sequence (Q9V3Q2 1-409): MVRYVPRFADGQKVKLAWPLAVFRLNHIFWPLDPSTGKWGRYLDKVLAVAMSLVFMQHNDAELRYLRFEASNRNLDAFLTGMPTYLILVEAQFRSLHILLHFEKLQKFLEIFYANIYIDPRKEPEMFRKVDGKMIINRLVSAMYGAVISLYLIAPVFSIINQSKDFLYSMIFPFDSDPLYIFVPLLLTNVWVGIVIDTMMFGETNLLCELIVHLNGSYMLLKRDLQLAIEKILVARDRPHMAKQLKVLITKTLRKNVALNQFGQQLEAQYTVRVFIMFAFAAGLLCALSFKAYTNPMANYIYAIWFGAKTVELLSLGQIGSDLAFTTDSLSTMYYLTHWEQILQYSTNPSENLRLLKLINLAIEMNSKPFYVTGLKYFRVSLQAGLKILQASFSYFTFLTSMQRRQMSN
Experimental: as §1

Sensitivity of the sensor (slope of the linear range) [1]: 0.313 units/[log(conc/M)]
B1: Or10a: insect odorant receptor OrX in liposomes attached to the gold electrode of the EIS sensor (protein, UniProt Q9VYZ1 1-406, looked up)
Odorant receptor 10a: MSEWLRFLKRDQQLDVYFFAVPRLSLDIMGYWPGKTGDTWPWRSLIHFAILAIGVATELHAGMCFLDRQQITLALETLCPAGTSAVTLLKMFLMLRFRQDLSIMWNRLRGLLFDPNWERPEQRDIRLKHSAMAARINFWPLSAGFFTCTTYNLKPILIAMILYLQNRYEDFVWFTPFNMTMPKVLLNYPFFPLTYIFIAYTGYVTIFMFGGCDGFYFEFCAHLSALFEVLQAEIESMFRPYTDHLELSPVQLYILEQKMRSVIIRHNAIIDLTRFFRDRYTIITLAHFVSAAMVIGFSMVNLLTLGNNGLGAMLYVAYTVAALSQLLVYCYGGTLVAESSTGLCRAMFSCPWQLFKPKQRRLVQLLILRSQRPVSMAVPFFSPSLATFAAILQTSGSIIALVKSFQ
modifications: in liposomes
notes: insect odorant receptor OrX in liposomes attached to the gold electrode of the EIS sensor

Sensitivity of the sensor (slope of the linear range) [2]: 0.156 units/[log(conc/M)]
B2: Or22a: insect odorant receptor OrX in liposomes attached to the gold electrode of the EIS sensor (protein, UniProt P81909 1-397, looked up)
Odorant receptor 22a: MLSKFFPHIKEKPLSERVKSRDAFIYLDRVMWSFGWTEPENKRWILPYKLWLAFVNIVMLILLPISISIEYLHRFKTFSAGEFLSSLEIGVNMYGSSFKCAFTLIGFKKRQEAKVLLDQLDKRCLSDKERSTVHRYVAMGNFFDILYHIFYSTFVVMNFPYFLLERRHAWRMYFPYIDSDEQFYISSIAECFLMTEAIYMDLCTDVCPLISMLMARCHISLLKQRLRNLRSKPGRTEDEYLEELTECIRDHRLLLDYVDALRPVFSGTIFVQFLLIGTVLGLSMINLMFFSTFWTGVATCLFMFDVSMETFPFCYLCNMIIDDCQEMSNCLFQSDWTSADRRYKSTLVYFLHNLQQPITLTAGGVFPISMQTNLAMVKLAFSVVTVIKQFNLAERFQ
modifications: in liposomes
notes: as for B1

Sensitivity of the sensor (slope of the linear range) [3]: 0.116 units/[log(conc/M)]
B3: Or35a: insect odorant receptor OrX in liposomes attached to the gold electrode of the EIS sensor (protein, UniProt Q9V3Q2 1-409, looked up)
Odorant receptor 35a: MVRYVPRFADGQKVKLAWPLAVFRLNHIFWPLDPSTGKWGRYLDKVLAVAMSLVFMQHNDAELRYLRFEASNRNLDAFLTGMPTYLILVEAQFRSLHILLHFEKLQKFLEIFYANIYIDPRKEPEMFRKVDGKMIINRLVSAMYGAVISLYLIAPVFSIINQSKDFLYSMIFPFDSDPLYIFVPLLLTNVWVGIVIDTMMFGETNLLCELIVHLNGSYMLLKRDLQLAIEKILVARDRPHMAKQLKVLITKTLRKNVALNQFGQQLEAQYTVRVFIMFAFAAGLLCALSFKAYTNPMANYIYAIWFGAKTVELLSLGQIGSDLAFTTDSLSTMYYLTHWEQILQYSTNPSENLRLLKLINLAIEMNSKPFYVTGLKYFRVSLQAGLKILQASFSYFTFLTSMQRRQMSN
modifications: in liposomes
notes: as for B1
